Experiments:
HeLa cells = assay: Neomycin (G418) resistant colony insulator assay in HeLa cells; type: cell-based, human; conditions: element between enhancer and minimal promoter/neo, 2 weeks G418
Method: For experimental convenience, Applicants wanted to validate the cHS4 enhancer-blocking activity in HeLa cells (top bars). Using the same approach, the pJC5-4 deriving constructs were stably transfected in HeLa cells. The cHS4 was able to insulate the reporter gene from the LCR activation of nearly 15-fold.
The capacity of the cHS4 to block the Fr-MLV LTR strong enhancer was assessed using the same system in HeLa cells. Additional plasmids were constructed, replacing the β-globin LCR element by the Fr-MLV LTR in both orientations.
FIG. 20. Assessment of the insulator activity of multimerized CTF binding sites using the commonly-used neomycin-resistance insulator assay. The number of neomycin resistant colonies were determined as in FIGS. 15 and 16 after 2 weeks of G418 selection of HeLa cells transfected using the indicated reporter constructs. […]
(A) Schematic representation of the vectors used for the insulator assay based on the quantitation of neomycin-resistant colonies. […] The level of expression of that reporter gene is assessed by the number of neomycin-resistant colonies obtained after stable transfections. […]
(C) Percentage of neomycin-resistant colonies counted 2 to 3 weeks after transfection and G418 selection of HeLa (dashed bars) and K562 (black bars) cells. […]

[1] = tested on: Fr-MLV LTR enhancer acting on GFP gene in HeLa cells; assay: First generation two-reporter (DsRed/GFP) enhancer-blocking assay, transient transfection, FACS; type: cell-based, human; conditions: element interposed between enhancer and GFP gene
From the text: The strategy elaborated by Applicants to address the potential enhancer-blocking activity of genetic elements consists in setting up a two-reporter genes-assay whereby the potency of suspected insulators can be quantified. A series of plasmids were thus designed, containing a combination of two reporter genes: a DsRed gene, used as the assay system internal control, under the control of a Fr-MLV LTR enhancer/promoter, and a GFP gene under the control of a minimal CMV promoter, but also subjected to the influence of the LTR enhancer. […] By analyzing the expression of both reporter genes by flow cytometry, this system provides a standardized quantitative procedure to assess potential insulator elements. […]
The constructs described in FIG. 14 were used to transfect transiently HeLa cells. The expression of both DsRed and GFP was analyzed by FACS. […]
HeLa cells were transfected with pAG1-3-HS4 (left panel) or pAG1-3-2HS4 (right panel) constructs (respectively constructs #4 and #5 on FIG. 30), and 100′000 cells were analyzed 48 hours later. […]
HeLa cell populations transiently transfected with constructs containing either no cHS4 (noins) or a copy at the GFP extremity (HS4) or two copies flanking the GFP gene (2HS4) were analyzed by FACS. Percentages of GFP-expressing cells (left panel) and GFP mean fluorescence in RLU (right panel) are plotted for each case.

B1: Ins2: 7 direct repeats of the CTF/NF1 binding site from adenovirus type II origin of replication, 5 bp spacing (nucleic acid)
DNA: ATCGATAAGCTTGCATTGGCAACGTGCCATAAGCATTGGCAACGTGCCATAAGCATTGGCAACGTGCCATAAGCATTGGCAACGTGCCATAAGCATTGGCAACGTGCCATAAGCATTGGCAACGTGCCATAAGCATTGGCAACGTGCCATAAGCGGGGGGATCC
modifications: 7xCTF/NF1 from adenovirus type II
Question: What does the source list for B1?
Answer: occurrence of colonies of neomycin-resistant cells (HeLa cells): significantly reduced the occurrence of colonies of neomycin-resistant cells; decrease of mean fluorescence of GFP-positive cells [1]: approximately three-fold

— US20110294873A1, “Gene Transfer Vectors Comprising At Least One Isolated DNA Molecule Having Insulator Or Boundary Properties And Methods To Identify The Same” (UNIVERSITÉ DE LAUSANNE, priority 2008, published 2011)
